{"source": "paper PMC5006311", "proteins": {"B1": {"name": "human equilibrative nucleoside transporter 1 (hENT1): N48Q (protein)", "parent chain": "MTTSHQPQDRYKAVWLIFFMLGLGTLLPWNFFMTATQYFTNRLDMSQNVSLVTAELSKDAQASAAPAAPLPERNSLSAIFNNVMTLCAMLPLLLFTYLNSFLHQRIPQSVRILGSLVAILLVFLITAILVKVQLDALPFFVITMIKIVLINSFGAILQGSLFGLAGLLPASYTAPIMSGQGLAGFFASVAMICAIASGSELSESAFGYFITACAVIILTIICYLGLPRLEFYRYYQQLKLEGPGEQETKLDLISKGEEPRAGKEESGVSVSNSQPTNESHSIKAILKNISVLAFSVCFIFTITIGMFPAVTVEVKSSIAGSSTWERYFIPVSCFLTFNIFDWLGRSLTAVFMWPGKDSRWLPSLVLARLVFVPLLLLCNIKPRRYLTVVFEHDAWFIFFMAAFAFSNGYLASLCMCFGPKKVKPAEAETAGAIMAFFLCLGLALGAVFSFLFRAIV"}}, "experiment": "immunofluorescence confocal microscopy, HEK293", "details": "glycan lost; control: wt hENT1 (HA- or 3xFLAG-tagged)"}
{"protein": "B1", "values": [{"measurement": "localisation_or_trafficking", "value": "decreases"}]}
